Results from publication PMC6237600.

Target: c-met receptor tyrosine kinase (native, on MM cell surface) (Homo sapiens) (UniProt P08581)
Assay: flow cytometry cell binding
Conditions: MM.1S cells; library signal subtracted; 5 mM MgCl2; 1x PBS, 4.5 g/L glucose, 5 mM MgCl2, 0.1 mg/mL yeast tRNA, 1 mg/mL BSA, 4 C, 30 min; 3e5 cells in 200 uL; pH not stated

Sequence of c-met receptor tyrosine kinase (native, on MM cell surface) (Homo sapiens) (P08581 25-1390): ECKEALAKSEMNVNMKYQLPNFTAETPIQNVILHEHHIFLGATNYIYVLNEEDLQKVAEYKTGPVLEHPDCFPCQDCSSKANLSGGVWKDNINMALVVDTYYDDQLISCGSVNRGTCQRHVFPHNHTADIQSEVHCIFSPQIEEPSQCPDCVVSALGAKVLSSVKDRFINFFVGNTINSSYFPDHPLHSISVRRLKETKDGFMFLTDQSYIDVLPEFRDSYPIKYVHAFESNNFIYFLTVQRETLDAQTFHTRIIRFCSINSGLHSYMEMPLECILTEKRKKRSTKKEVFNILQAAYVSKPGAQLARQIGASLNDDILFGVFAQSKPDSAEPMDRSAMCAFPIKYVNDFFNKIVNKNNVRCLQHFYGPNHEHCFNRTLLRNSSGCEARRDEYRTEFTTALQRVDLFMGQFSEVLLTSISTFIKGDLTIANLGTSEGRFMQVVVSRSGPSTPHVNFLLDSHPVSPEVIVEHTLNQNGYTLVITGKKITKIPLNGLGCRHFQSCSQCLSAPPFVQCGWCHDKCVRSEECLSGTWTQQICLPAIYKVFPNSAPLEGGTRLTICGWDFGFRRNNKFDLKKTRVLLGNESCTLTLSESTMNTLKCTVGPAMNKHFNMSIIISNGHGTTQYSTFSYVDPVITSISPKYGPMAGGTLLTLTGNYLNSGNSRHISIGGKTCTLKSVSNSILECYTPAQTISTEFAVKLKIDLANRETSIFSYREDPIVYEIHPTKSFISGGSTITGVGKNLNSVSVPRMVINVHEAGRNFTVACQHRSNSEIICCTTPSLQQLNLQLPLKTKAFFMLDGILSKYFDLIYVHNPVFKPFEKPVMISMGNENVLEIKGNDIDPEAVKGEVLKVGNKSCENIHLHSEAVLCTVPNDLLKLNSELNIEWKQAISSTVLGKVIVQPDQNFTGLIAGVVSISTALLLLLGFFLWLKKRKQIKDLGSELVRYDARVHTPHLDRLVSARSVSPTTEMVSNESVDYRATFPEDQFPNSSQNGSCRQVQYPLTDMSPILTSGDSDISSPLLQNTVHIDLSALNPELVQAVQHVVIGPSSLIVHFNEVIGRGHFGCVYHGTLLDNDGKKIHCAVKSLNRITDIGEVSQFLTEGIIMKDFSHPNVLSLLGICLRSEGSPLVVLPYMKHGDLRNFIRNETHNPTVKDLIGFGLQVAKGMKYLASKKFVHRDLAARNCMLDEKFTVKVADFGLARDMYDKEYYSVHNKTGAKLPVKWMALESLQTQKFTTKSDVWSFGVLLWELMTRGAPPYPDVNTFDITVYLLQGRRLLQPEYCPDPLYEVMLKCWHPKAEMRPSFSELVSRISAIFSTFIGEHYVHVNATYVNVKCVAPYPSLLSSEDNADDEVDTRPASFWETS

“ATCAGGCTGGATGGTAGCTCGGTCGGGGTGGGTGGGTTGGCAAGTCTGAT [SL1]” was tested, and the Kd was 136 nM.
